Publication PMC4156547

Legend:
[1] = biological target: HIV-1 gp41^27–194 (HIV-1 (HXB2)); assay: AUC
[2] = biological target: gp41^27–154 (HIV ectodomain) (HIV-1); assay: AUC

HIV-1 gp41^27–194 (domain or fragment) was tested, and the stoichiometry N [1] was 3.
“gp41^27–154 (HIV ectodomain) (domain or fragment)” was tested, and the stoichiometry N [2] was 3.
